From patent US20190071490A1, “Preventing Post-Ictal Headaches” (Beth Israel Deaconess Medical Center, Inc., priority 2017, published 2019)
Where a chain is given by its changes, count along the chain named. Names may count otherwise.

T1: human α-CGRP (Homo sapiens, UniProt P06881)
T1 construct: 1-37 (WT); purchased GenScript Corporation or Global Peptide Services
T1 sequence (P06881 83-119 limits assumed): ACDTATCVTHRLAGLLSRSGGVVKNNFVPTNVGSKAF

T2: rat α-CGRP (Rattus norvegicus, UniProt P01256)
T2 construct: rat α (1-37); purchased GenScript Corporation or Global Peptide Services
T2 sequence (P01256 83-119 limits assumed): T1 sequence (P06881 83-119 limits assumed) with A1S, D3N, N25D, K35E

B1: M20: G1 variant; L1 R28W; HC-FW3 L99R A100L (antibody, V domains shown)
VH: EVQLVESGGGLVQPGGSLRLSCAASGFTFSNYWISWVRQAPGKGLEWVAEIRSESDASATHYAEAVKGRFTISRDNAKNSLYLQMNSLRAEDTAVYYCRLYFDYGLAIQNYWGQGTLVTVSS
VL: EIVLTQSPATLSLSPGERATLSCKASKWVTTYVSWYQQKPGQAPRLLIYGASNRYLGIPARFSGSGSGTDFTLTISSLEPEDFAVYYCSQSYNYPYTFGQGTKLEIK
B2: M26: G1 variant; L1 R28N; H2 A57G; HC-FW3 L99T A100V (antibody, V domains shown)
VH: B1 VH with A57G, R99T, L100V
VL: B1 VL with W28N
B3: M23: G1 variant; L1 R28G; HC-FW3 L99T A100V (antibody, V domains shown)
VH: B1 VH with R99T, L100V
VL: B1 VL with W28G
B4: M27: G1 variant; L1 R28N T30A; HC-FW3 L99T A100V (antibody, V domains shown)
VH: B1 VH with R99T, L100V
VL: B1 VL with W28N, T30A
B5: M29: G1 variant; L1 R28N T30G; HC-FW3 L99T A100V (antibody, V domains shown)
VH: B1 VH with R99T, L100V
VL: B1 VL with W28N, T30G
B6: M30: G1 variant; L1 R28N T30G; H2 E54K A57E; HC-FW3 L99T A100V (antibody, V domains shown)
VH: B1 VH with E54K, A57E, R99T, L100V
VL: B1 VL with W28N, T30G
B7: M24: G1 variant; L1 R28L; HC-FW3 L99T A100V (antibody, V domains shown)
VH: B1 VH with R99T, L100V
VL: B1 VL with W28L
B8: M22: G1 variant; L1 R28W; HC-FW3 L99T (antibody, V domains shown)
VH: B1 VH with R99T, L100A
VL: B1 VL
B9: M31: G1 variant; L1 R28N T30G; H2 E54K A57G; HC-FW3 L99T A100V (antibody, V domains shown)
VH: B1 VH with E54K, A57G, R99T, L100V
VL: B1 VL with W28N, T30G
B10: M21: G1 variant; L1 R28W; HC-FW3 L99S (antibody, V domains shown)
VH: B1 VH with R99S, L100A
VL: B1 VL
B11: M28: G1 variant; L1 R28N T30D; H2 E54R A57N; HC-FW3 L99T A100V (antibody, V domains shown)
VH: B1 VH with E54R, A57N, R99T, L100V
VL: B1 VL with W28N, T30D

Tests used:
[1] = target: T1, human α-CGRP; experiment: Biacore SPR affinity of Fab fragments to N-biotinylated human α-CGRP on SA chip; assay type: binding; conditions: 37° C., screening mode except underlined values
Experimental: (§1) Affinity determination of the Fabs. Affinities of the anti-CGRP monoclonal antibodies were determined at either 25° C. or 37° C. using the BIACORE3000™ surface plasmon resonance (SPR) system (Biacore, INC, Piscataway N.J.) with the manufacture's own running buffer, HBS-EP (10 mM HEPES pH 7.4, 150 mM NaCl, 3 mM EDTA, 0.005% v/v polysorbate P20). Affinity was determined by capturing N-terminally biotinylated CGRP peptides (custom ordered from GenScript Corporation, New Jersey or Global Peptide Services, Colorado) via pre-immobilized streptavidin on SA chip and measuring binding kinetics of antibody Fab titrated across the CGRP surface. Biotinylated CGRP was diluted into HBS-EP and injected over the chip at a concentration of less than 0.001 mg/ml. Using variable flow time across the individual chip channels, two ranges of antigen density were achieved: <50 response units (RU) for detailed kinetic studies and about 800 RU for concentration studies and screening. […] After each binding cycle, surfaces were regenerated with 25 mM NaOH in 25% v/v ethanol, which was tolerated over hundreds of cycles. Kinetic association rate (kon) and dissociation rate (koff) were obtained simultaneously by fitting the data to a 1:1 Langmuir binding model (Karlsson et al. (1994). Methods Enzymology 6. 99-110) using the BIAevaluation program. Global equilibrium dissociation constants (KD) or “affinities” were calculated from the ratio KD=koff/kon.
(§2) Biacore assay for affinity determination. […] All Biacore assays were conducted in HBS-EP running buffer (10 mM HEPES pH 7.4, 150 mM NaCl, 3 mM EDTA, 0.005% v/v polysorbate P20). CGRP surfaces were prepared by diluting the N-biotinylated CGRP to a concentration of less than 0.001 mg/mL into HBS-EP buffer and injecting it across the SA sensor chip using variable contact times. Low capacity surfaces, corresponding to capture levels <50 response units (RU) were used for high-resolution kinetic studies, whereas high capacity surfaces (about 800 RU of captured CGRP) were used for concentration studies, screening, and solution affinity determinations. […] Samples were typically injected for 1 minute at 100 μL/min and dissociation times of at least 10 minutes were allowed. After each binding cycle, surfaces were regenerated with 25 mM NaOH in 25% v/v ethanol, which was tolerated over hundreds of cycles. An entire titration series (typically generated in duplicate) was fit globally to a 1:1 Langmuir binding model using the BIAevaluation program. This returned a unique pair of association and dissociation kinetic rate constants (respectively, kon and koff) for each binding interaction, whose ratio gave the equilibrium dissociation constant (KD=koff/kon).
(§3) High-resolution analysis of binding interactions with extremely slow off rates. […] The protocol described above was used with the following modifications. The association rate constant (kon) was determined by injecting a 2-fold titration series (in duplicate) spanning 550 nM-1 nM for 30 seconds at 100 μL/min and allowing only a 30 second dissociation phase. The dissociation rate constant (koff) was determined by injecting three concentrations (high, medium, and low) of the same titration series in duplicate for 30 seconds and allowing a 2-hour dissociation phase. The affinity (KD) of each interaction was obtained by combining the kon and koff values obtained in both types of experiments, as shown in Table 4.

[2] = target: T2, rat α-CGRP; experiment: Biacore SPR affinity of Fab fragments to N-biotinylated rat α-CGRP on SA chip; assay type: binding; conditions: 37° C., screening mode except underlined values
Experimental: as §1, §2, §3

Row | Molecule | α-human koff [1] [s⁻¹] | α-rat koff [2] [s⁻¹]
1 | B1 | 0.000136 | 0.00144
2 | B2 | 0.000148 | 0.000924
3 | B3 | 0.00013 | 0.000799
4 | B4 | 0.000357 | 0.00341
5 | B5 | 0.00038 | 0.00359
6 | B6 | 0.00059 | 0.00638
7 | B7 | 0.000148 | 0.00104
8 | B8 | 0.000116 | 0.0011
9 | B9 | 0.000347 | 0.00361
10 | B10 | 0.000142 | 0.000695
11 | B11 | 9.96e-05 | 0.00125
